Source: patent US20170190753A1 (LABORATOIRE FRANCAIS DU FRACTIONNEMENT ET DES …, published 2017)

B1: pCEP4-1NT10-15CT20 (other)
chain: EDCNELPPRRNTEILTGSWSDQTYPEGTQAIYKCRPGYRSLGNVIMVCRKGEWVALNPLRKCQKRPCGHPGDTPFGTFTLTGGNVFEYGVKAVYTCNEGYQLLGEINYRECDTDGWTNDIPICEVVKCLPVTAPENGKIVSSAMEPDREYHFGQAVRFVCNSGYKIEGDEEMHCSDDGFWSKEKPKCVEISCKSPDVINGSPISQKIIYKENERFQYKCNMGYEYSERGDAVCTESGWRPLPSCEEKSCDNPYIPNGDYSPLRIKHRTGDEITYQCRNGFYPATRGNTAKCTSTGWIPAPRCTLKPCDYPDIKHGGLYHENMRRPYFPVAVGKYYSYYCDEHFETPSGSYWDHIHCTQDGWSPAVPCLRKCYFPYLENGYNQNHGRKFVQGKSIDVACHPGYALPKAQTTVTCMENGWSPTPRCIRVKTCSKSSIDIENGFISESQYTYALKEKAKYQCKLGYVTADGETSGSITCGKDGWSAQPTCIKSCDIPVFMNARTKNDFTWFKLNDTLDYECHDGYESNTGSTTGSIVCGYNGWSDLPICYERECELPKIDVHLVPDRKKDQYKVGEVLKFSCKPGFTIVGPNSVQCYHFGLSPDLPICKEQVQSGASGCSQPPQIEHGTINSSRSSQESYAHGTKLSYTCEGGFRISEENETTCYMGKWSSPPQCEGLPCKSPPEISHGVVAHMSDSYQYGEEVTYKCFEGFGIDGPAIAKCLGEKWSHPPSCIKTDCLSLPSFENAIPMGEKKDVYKAGEQVTYTCATYYKMDGASNVTCINSRWTGRPTCRDTSCVNPPTVQNAYIVSRQMSKYPSGERVRYQCRSPYEMFGDEEVMCLNGNWTEPPQCKDSTGKCGPPPPIDNGDITSFPLSVYAPASSVEYQCQNLYQLEGNKRITCRNGQWSEPPKCLHPCVISREIMENYNIALRWTAKQKLYSRTGESVEFVCKRGYRLSSRSHTLRTTCWDGKLEYPTCAKRGGSGHHHHHH
B2: pCEP4-1NT7-12CT20 (other)
chain: EDCNELPPRRNTEILTGSWSDQTYPEGTQAIYKCRPGYRSLGNVIMVCRKGEWVALNPLRKCQKRPCGHPGDTPFGTFTLTGGNVFEYGVKAVYTCNEGYQLLGEINYRECDTDGWTNDIPICEVVKCLPVTAPENGKIVSSAMEPDREYHFGQAVRFVCNSGYKIEGDEEMHCSDDGFWSKEKPKCVEISCKSPDVINGSPISQKIIYKENERFQYKCNMGYEYSERGDAVCTESGWRPLPSCEEKSCDNPYIPNGDYSPLRIKHRTGDEITYQCRNGFYPATRGNTAKCTSTGWIPAPRCTLKPCDYPDIKHGGLYHENMRRPYFPVAVGKYYSYYCDEHFETPSGSYWDHIHCTQDGWSPAVPCLRKCYFPYLENGYNQNYGRKFVQGKSIDVACHPGYALPKAQTTVTCMENGWSPTPRCIRVKTGASGCGDIPELEHGWAQLSSPPYYYGDSVEFNCSESFTMIGHRSITCIHGVWTQLPQCVAIDKLKKCKSSNLIILEEHLKNKKEFDHNSNIRYRCRGKEGWIHTVCINGRWDPEVNCSMAQIQLCPPPPQIPNSHNMTTTLNYRDGEKVSVLCQENYLIQEGEEITCKDGRWQSIPLCVEKIPCSQPPQIEHGTINSSRSSQESYAHGTKLSYTCEGGFRISEENETTCYMGKWSSPPQCEGLPCKSPPEISHGVVAHMSDSYQYGEEVTYKCFEGFGIDGPAIAKCLGEKWSHPPSCIKTDCLSLPSFENAIPMGEKKDVYKAGEQVTYTCATYYKMDGASNVTCINSRWTGRPTCRDTSCVNPPTVQNAYIVSRQMSKYPSGERVRYQCRSPYEMFGDEEVMCLNGNWTEPPQCKDSTGKCGPPPPIDNGDITSFPLSVYAPASSVEYQCQNLYQLEGNKRITCRNGQWSEPPKCLHPCVISREIMENYNIALRWTAKQKLYSRTGESVEFVCKRGYRLSSRSHTLRTTCWDGKLEYPTCAKRGGSGHHHHHH
B3: pCEP4-1NT7-13CT20 (other)
chain: EDCNELPPRRNTEILTGSWSDQTYPEGTQAIYKCRPGYRSLGNVIMVCRKGEWVALNPLRKCQKRPCGHPGDTPFGTFTLTGGNVFEYGVKAVYTCNEGYQLLGEINYRECDTDGWTNDIPICEVVKCLPVTAPENGKIVSSAMEPDREYHFGQAVRFVCNSGYKIEGDEEMHCSDDGFWSKEKPKCVEISCKSPDVINGSPISQKIIYKENERFQYKCNMGYEYSERGDAVCTESGWRPLPSCEEKSCDNPYIPNGDYSPLRIKHRTGDEITYQCRNGFYPATRGNTAKCTSTGWIPAPRCTLKPCDYPDIKHGGLYHENMRRPYFPVAVGKYYSYYCDEHFETPSGSYWDHIHCTQDGWSPAVPCLRKCYFPYLENGYNQNYGRKFVQGKSIDVACHPGYALPKAQTTVTCMENGWSPTPRCIRVKTGASGCKSSNLIILEEHLKNKKEFDHNSNIRYRCRGKEGWIHTVCINGRWDPEVNCSMAQIQLCPPPPQIPNSHNMTTTLNYRDGEKVSVLCQENYLIQEGEEITCKDGRWQSIPLCVEKIPCSQPPQIEHGTINSSRSSQESYAHGTKLSYTCEGGFRISEENETTCYMGKWSSPPQCEGLPCKSPPEISHGVVAHMSDSYQYGEEVTYKCFEGFGIDGPAIAKCLGEKWSHPPSCIKTDCLSLPSFENAIPMGEKKDVYKAGEQVTYTCATYYKMDGASNVTCINSRWTGRPTCRDTSCVNPPTVQNAYIVSRQMSKYPSGERVRYQCRSPYEMFGDEEVMCLNGNWTEPPQCKDSTGKCGPPPPIDNGDITSFPLSVYAPASSVEYQCQNLYQLEGNKRITCRNGQWSEPPKCLHPCVISREIMENYNIALRWTAKQKLYSRTGESVEFVCKRGYRLSSRSHTLRTTCWDGKLEYPTCAKRGGSGHHHHHH
B4: pCEP4-1NT8-10CT20 (other)
chain: EDCNELPPRRNTEILTGSWSDQTYPEGTQAIYKCRPGYRSLGNVIMVCRKGEWVALNPLRKCQKRPCGHPGDTPFGTFTLTGGNVFEYGVKAVYTCNEGYQLLGEINYRECDTDGWTNDIPICEVVKCLPVTAPENGKIVSSAMEPDREYHFGQAVRFVCNSGYKIEGDEEMHCSDDGFWSKEKPKCVEISCKSPDVINGSPISQKIIYKENERFQYKCNMGYEYSERGDAVCTESGWRPLPSCEEKSCDNPYIPNGDYSPLRIKHRTGDEITYQCRNGFYPATRGNTAKCTSTGWIPAPRCTLKPCDYPDIKHGGLYHENMRRPYFPVAVGKYYSYYCDEHFETPSGSYWDHIHCTQDGWSPAVPCLRKCYFPYLENGYNQNYGRKFVQGKSIDVACHPGYALPKAQTTVTCMENGWSPTPRCIRVKTCSKSSIDIENGFISESQYTYALKEKAKYQCKLGYVTADGETSGSITCGKDGWSAQPTCIKSGASGCELPKIDVHLVPDRKKDQYKVGEVLKFSCKPGFTIVGPNSVQCYHFGLSPDLPICKEQVQSCGPPPELLNGNVKEKTKEEYGHSEVVEYYCNPRFLMKGPNKIQCVDGEWTTLPVCIVEESTCGDIPELEHGWAQLSSPPYYYGDSVEFNCSESFTMIGHRSITCIHGVWTQLPQCVAIDKLKKCKSSNLIILEEHLKNKKEFDHNSNIRYRCRGKEGWIHTVCINGRWDPEVNCSMAQIQLCPPPPQIPNSHNMTTTLNYRDGEKVSVLCQENYLIQEGEEITCKDGRWQSIPLCVEKIPCSQPPQIEHGTINSSRSSQESYAHGTKLSYTCEGGFRISEENETTCYMGKWSSPPQCEGLPCKSPPEISHGVVAHMSDSYQYGEEVTYKCFEGFGIDGPAIAKCLGEKWSHPPSCIKTDCLSLPSFENAIPMGEKKDVYKAGEQVTYTCATYYKMDGASNVTCINSRWTGRPTCRDTSCVNPPTVQNAYIVSRQMSKYPSGERVRYQCRSPYEMFGDEEVMCLNGNWTEPPQCKDSTGKCGPPPPIDNGDITSFPLSVYAPASSVEYQCQNLYQLEGNKRITCRNGQWSEPPKCLHPCVISREIMENYNIALRWTAKQKLYSRTGESVEFVCKRGYRLSSRSHTLRTTCWDGKLEYPTCAKRGGSGHHHHHH

Molecular target: C3 convertase complex (UniProt P01024 23-1663; P00751 260-764)
Sequence (P01024 23-1663, chain 1 of 2): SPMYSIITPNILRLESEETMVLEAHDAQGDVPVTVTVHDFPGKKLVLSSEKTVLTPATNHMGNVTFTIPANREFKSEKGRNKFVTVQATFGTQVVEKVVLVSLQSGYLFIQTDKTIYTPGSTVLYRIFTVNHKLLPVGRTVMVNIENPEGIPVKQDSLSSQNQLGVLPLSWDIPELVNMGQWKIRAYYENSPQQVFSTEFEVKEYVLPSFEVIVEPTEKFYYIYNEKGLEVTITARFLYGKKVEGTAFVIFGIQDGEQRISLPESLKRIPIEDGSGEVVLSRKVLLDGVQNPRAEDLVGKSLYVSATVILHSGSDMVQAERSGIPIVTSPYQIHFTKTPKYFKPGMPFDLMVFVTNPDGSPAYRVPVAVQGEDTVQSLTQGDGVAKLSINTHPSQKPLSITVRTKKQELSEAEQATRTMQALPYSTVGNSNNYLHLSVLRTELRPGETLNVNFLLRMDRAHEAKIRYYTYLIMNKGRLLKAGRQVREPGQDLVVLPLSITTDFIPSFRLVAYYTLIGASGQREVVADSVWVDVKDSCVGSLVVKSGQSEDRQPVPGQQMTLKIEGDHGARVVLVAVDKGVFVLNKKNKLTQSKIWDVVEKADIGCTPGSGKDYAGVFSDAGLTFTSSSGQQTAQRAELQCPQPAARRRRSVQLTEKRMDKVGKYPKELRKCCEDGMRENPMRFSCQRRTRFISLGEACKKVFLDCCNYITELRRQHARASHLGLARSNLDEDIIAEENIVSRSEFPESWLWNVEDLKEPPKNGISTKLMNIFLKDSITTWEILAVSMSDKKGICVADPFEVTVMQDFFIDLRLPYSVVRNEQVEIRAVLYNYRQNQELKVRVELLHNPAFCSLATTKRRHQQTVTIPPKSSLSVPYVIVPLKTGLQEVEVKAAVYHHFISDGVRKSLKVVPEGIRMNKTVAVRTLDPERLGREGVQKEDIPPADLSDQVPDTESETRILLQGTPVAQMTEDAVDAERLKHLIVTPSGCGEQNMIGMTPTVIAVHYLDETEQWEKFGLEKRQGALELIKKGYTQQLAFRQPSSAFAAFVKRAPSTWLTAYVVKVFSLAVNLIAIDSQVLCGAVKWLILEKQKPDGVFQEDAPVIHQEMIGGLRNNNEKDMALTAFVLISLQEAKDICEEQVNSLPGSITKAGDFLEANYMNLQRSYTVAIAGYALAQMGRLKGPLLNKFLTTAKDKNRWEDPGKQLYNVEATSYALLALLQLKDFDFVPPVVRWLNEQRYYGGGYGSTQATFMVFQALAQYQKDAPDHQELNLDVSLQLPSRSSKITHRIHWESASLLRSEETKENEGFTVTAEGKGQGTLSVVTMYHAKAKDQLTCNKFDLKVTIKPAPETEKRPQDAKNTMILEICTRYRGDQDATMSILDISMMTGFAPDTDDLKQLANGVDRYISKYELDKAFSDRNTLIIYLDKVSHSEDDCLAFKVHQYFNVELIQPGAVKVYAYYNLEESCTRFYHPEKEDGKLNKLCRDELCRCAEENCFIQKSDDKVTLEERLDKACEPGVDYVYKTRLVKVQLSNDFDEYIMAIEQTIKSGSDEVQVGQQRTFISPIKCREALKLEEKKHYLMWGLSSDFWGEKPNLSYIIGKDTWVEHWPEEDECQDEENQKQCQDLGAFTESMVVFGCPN
Sequence (P00751 260-764, chain 2 of 2): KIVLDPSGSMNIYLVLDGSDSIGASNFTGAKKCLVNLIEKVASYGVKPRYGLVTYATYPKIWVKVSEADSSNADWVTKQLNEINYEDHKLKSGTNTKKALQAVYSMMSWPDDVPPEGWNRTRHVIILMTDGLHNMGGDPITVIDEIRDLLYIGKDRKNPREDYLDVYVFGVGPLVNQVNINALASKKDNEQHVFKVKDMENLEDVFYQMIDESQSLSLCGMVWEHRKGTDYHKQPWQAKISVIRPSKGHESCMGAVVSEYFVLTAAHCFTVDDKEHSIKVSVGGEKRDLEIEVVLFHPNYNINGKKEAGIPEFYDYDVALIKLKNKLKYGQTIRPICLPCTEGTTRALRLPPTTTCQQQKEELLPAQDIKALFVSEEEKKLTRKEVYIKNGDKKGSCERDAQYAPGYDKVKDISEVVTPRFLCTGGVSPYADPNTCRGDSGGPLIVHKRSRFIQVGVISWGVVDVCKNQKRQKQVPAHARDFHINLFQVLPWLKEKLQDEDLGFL
Test: cell-based or functional assay
For C3 convertase activity % of the control in this document: test concentration or dose not given here.

Row | Binder | C3 convertase activity % of the control | C3 convertase activity IC50
1 | B1 | 6 % of the control | 1.17 µg/mL
2 | B2 | 7 % of the control | 2.04 µg/mL
3 | B3 | 7 % of the control | 1.93 µg/mL
4 | B4 | 107 % of the control | 0.338 µg/mL
